Experimental data: patent US20260364214A1, “MULTIVALENT FIBROBLAST ACTIVATION PROTEIN LIGANDS FOR TARGETED DELIVERY APPLICATIONS” (Philochem AG, priority 2022, published 2026)

Experiments:
[1] = Tolerability (body weight change) of MMAE conjugates in HT-1080.hFAP tumor bearing mice; type: in vivo, mouse (athymic Balb/c AnNRj-Foxn1); details: 50 or 125 nmol/kg
Procedure: The anti-cancer efficacy of (i) ESV6-GlyPro-MMAE (50 or 125 nmol/kg) —corresponding to Conjugate 58a of EP3891138B1—, and (ii) Tri-ESV6-GlyPro-MMAE (50 or 125 nmol/kg) according to the present invention was assessed in athymic Balb/c AnNRj-Foxn1 mice bearing HT-1080.hFAP tumor in the right flank. Therapy experiments started when the average volume of established tumors had reached 80-100 mm3. Body weight of the animals and tumor volume were daily measured and recorded. Tumor dimensions were measured with an electronic caliper and tumor volume was calculated with the formula (long side, mm)×(short side, mm)×(short side, mm)×0.5. Animals were euthanized when one or more termination criterium indicated by the experimental license was reached. Prism 7 software (GraphPad Software) was used for data analysis.

[2] = test system: HT-1080.hFAP tumors; experiment: Quantitative in vivo MMAE release in tumor and healthy organs; design: species or system mouse (athymic Balb/c AnNRj-Foxn1); details: 250 nmol/kg; vs ESV6-GlyPro-MMAE and Bi-ESV6-GlyPro-MMAE
Text: The ESV6 binding moiety in monomeric, dimeric or trimeric form was conjugated to an identical linker-payload structure based on a Glycine-Proline linker and an MMAE cytotoxic moiety. The three conjugates: (i) ESV6-GlyPro-MMAE—corresponding to Conjugate 58a of EP3891138B1—, (ii) Bi-ESV6-GlyPro-MMAE—corresponding to Conjugate 11 of WO2022/171811A1, and (iii) Tri-ESV6-GlyPro-MMAE—corresponding to Conjugate 9 of the present invention—, were compared in a tumor mouse model to study the efficacy of release of the MMAE cytotoxic moiety into the tumor.
HT-1080.hFAP tumors were implanted into the right flank of athymic Balb/c AnNRj-Foxn1 mice and allowed to grow to an average volume of approximately 200 mm^3. Mice were injected with the three conjugates at a dose of 250 nmol/kg and sacrificed at different timepoints after administration. Fresh blood was collected in lithium heparin tubes (BD Microcontainer LH Tubes), vortexed, and centrifuged (15,000 g, 15 minutes). […] Peak areas of analytes and internal standards were integrated, and corresponding ratios were calculated. The ratios were then transformed into pmol/g of wet tissue using single-concentration external calibration points and corrected by the total weight of the sample analysed. The percentage of injected dose per gram (% ID/g) was finally calculated by normalizing the value based on the total dose injected into the mouse. […]

## CC[C@@H](C)[C@@H]([C@@H](CC(=O)N1CCC[C@H]1[C@H](OC)[C@@H](C)C(=O)N[C@H](C)[C@@H](O)c1ccccc1)OC)N(C)C(=O)[C@@H](NC(=O)[C@H](C(C)C)N(C)C(=O)OCc1ccc(NC(=O)[C@@H]2CCCN2C(=O)CNC(=O)CCCCCN2C(=O)CC(SC[C@H](NC(=O)[C@H](CC(=O)O)NC(=O)[C@H](CCCCN)NC(=O)[C@H](CC(=O)O)NC(=O)CCC(=O)NC(COCCC(=O)NCCNC(=O)CCC(=O)Nc3cccc4c(C(=O)NCC(=O)N5CC(F)(F)C[C@H]5C#N)ccnc34)(COCCC(=O)NCCNC(=O)CCC(=O)Nc3cccc4c(C(=O)NCC(=O)N5CC(F)(F)C[C@H]5C#N)ccnc34)COCCC(=O)NCCNC(=O)CCC(=O)Nc3cccc4c(C(=O)NCC(=O)N5CC(F)(F)C[C@H]5C#N)ccnc34)C(=O)O)C2=O)cc1)C(C)C (stereo in doubt) [Tri-ESV6-GlyPro-MMAE]
[1]
  tolerability (body weight change), in words: well tolerated
[2]
  MMAE release in tumor and healthy organs, in words: cleaner biodistribution profile, with high and prolonged accumulation at the tumor site, and lower release in the healthy organs
